Measured values taken from the supplement of paper PMC10126150.
± gives the standard deviation of the averaged measurements.

System: ATP
Experiment: switch fluorescence ratio, 500 uM ATP over buffer (Cy3 cluster intensity, sum of 5 cycles each) (fold (ratio)); higher = stronger signal-on switching upon ATP binding; sequences stand for … in TCGTCGGCAGCGTCAGATGTGTATAAGAGACAGTTTTTTTTTTTTTTTTTTTTTTTTT…TC
Details: aptamer strand: ATP DNA aptamer (quencher-CACCTGGGGGAGTATTGCGGAGGAAGG + anchor), 100 nM annealed; ATP concentration: 500 uM
How it was run: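 For every switch-domain sequence, the fluorescence ratio is the mean of per-cluster values, each being summed target-cycle Cy3 intensity over summed buffer-cycle Cy3 intensity. Clusters outside 100-1000 RFU were excluded. On a modified Illumina MiSeq flow-cell, the Cy3-labelled switching-strand clusters were annealed to 100 nM quencher-labelled ATP aptamer, imaged in selection buffer and then after 15 min with 500 uM ATP at 22 °C. Five such cycles were run, with NaOH stripping and re-annealing between them.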
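Further: ATP exposure 15 min at 22 °C before imaging.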

AAGGTGGCCC and GGGTTACAGC are within error of each other in switch fluorescence ratio: 1.03 ± 0.023 for the first, 1 ± 0.026 for the second.

TGTTTTAGAA and TAAGGTGAGG are within error of each other in switch fluorescence ratio: 1.01 ± 0.012 for the first, 1.04 ± 0.023 for the second.

AATTGTATGT and CGGAACGAGA are within error of each other in switch fluorescence ratio: 0.989 ± 0.029 for the first, 0.983 ± 0.025 for the second.

TTTTTAGTAC and TTAATCGTGC are within error of each other in switch fluorescence ratio: 0.99 ± 0.013 for the first, 0.98 ± 0.043 for the second.

GGTTCATTAG and TGTGAAAGGC are within error of each other in switch fluorescence ratio: 1.01 ± 0.037 for the first, 1.04 ± 0.03 for the second.

TTCGGGAAGC and AAGGGTTACG are within error of each other in switch fluorescence ratio: 1.018 ± 0.0056 for the first, 1 ± 0.025 for the second.

ATCCGTTTTT and CGTGAGTTGG are within error of each other in switch fluorescence ratio: 1 ± 0.016 for the first, 0.992 ± 0.014 for the second.

GGCATCTAAG and TGAGGAAAAG are within error of each other in switch fluorescence ratio: 0.997 ± 0.019 for the first, 1.006 ± 0.0065 for the second.

ATTCTTTTGC and GGTTATTGTG are within error of each other in switch fluorescence ratio: 1.03 ± 0.06 for the first, 0.968 ± 0.027 for the second.

GGTCCGGGGC and CTGTGGGGGT are within error of each other in switch fluorescence ratio: 1.01 ± 0.026 for the first, 1.04 ± 0.012 for the second.

First: GGATTTGGGT
Second: ATGGTAGCAA
The switch fluorescence ratio of the first is lower: 0.981 ± 0.017 for the first, 2.05 ± 0.14 for the second.

GGGCGGGTTG and GATGGAACAC are within error of each other in switch fluorescence ratio: 1 ± 0.0036 for the first, 0.994 ± 0.017 for the second.

TTGGGGTATA and TTAAATCGTG are within error of each other in switch fluorescence ratio: 1.03 ± 0.055 for the first, 1.01 ± 0.054 for the second.

GATACTTTTT and TTTTGATAAT are within error of each other in switch fluorescence ratio: 1.01 ± 0.029 for the first, 0.991 ± 0.016 for the second.

CGAACTCCTG and TGCTGGATTA are within error of each other in switch fluorescence ratio: 1.05 ± 0.014 for the first, 1.01 ± 0.031 for the second.

First: AGTTCGGGAG
Second: GCGCTATATG
The switch fluorescence ratio of the first is lower: 0.99 ± 0.013 for the first, 1.16 ± 0.049 for the second.

Compared with AGGGGGCGCC, ATATGCATGG is lower in switch fluorescence ratio: 1.02 ± 0.016 for the first, 0.969 ± 0.014 for the second.

Going from TGTCGGCTGC to TAGTTGGGGG, the switch fluorescence ratio falls from 1.09 ± 0.015 to 1 ± 0.028.

Compared with TAGGAGGTTT, TTGGTGATGA is lower in switch fluorescence ratio: 1.067 ± 0.0013 for the first, 1.02 ± 0.023 for the second.

CTATTGATGG and ATTTTCTTAG are within error of each other in switch fluorescence ratio: 0.996 ± 0.015 for the first, 0.999 ± 0.018 for the second.

TGGTTAAATT and TTGCTGATGC are within error of each other in switch fluorescence ratio: 0.997 ± 0.033 for the first, 1.02 ± 0.039 for the second.

GATCTTTGTT and ATAAGGCGGG are within error of each other in switch fluorescence ratio: 1.009 ± 0.0093 for the first, 0.971 ± 0.031 for the second.

Compared with GACATGGGAT, AGACGTCACT is higher in switch fluorescence ratio: 1.01 ± 0.037 for the first, 1.77 ± 0.12 for the second.

CCCGAAGGGC and AGTGGGCGGG are within error of each other in switch fluorescence ratio: 1.01 ± 0.081 for the first, 1.003 ± 0.0097 for the second.

Compared with GGAAACAGGG, TTTTGGTAAC is higher in switch fluorescence ratio: 0.964 ± 0.02 for the first, 1.014 ± 0.0072 for the second.

First: GGTGGGTCGT
Second: AATCGTCTTT
The switch fluorescence ratio of the first is higher: 1.014 ± 0.0095 for the first, 0.961 ± 0.024 for the second.

First: AGTCTGCCA
Second: TCCATTAGAT
The switch fluorescence ratio of the first is lower: 0.977 ± 0.015 for the first, 1.019 ± 0.0066 for the second.

GAAGTCGTGC and GGGGGTAGCT are within error of each other in switch fluorescence ratio: 0.999 ± 0.023 for the first, 1 ± 0.017 for the second.

Compared with GCATTTTAGG, AGCGACGGAC is higher in switch fluorescence ratio: 0.967 ± 0.045 for the first, 1.42 ± 0.1 for the second.

TAAATTACTA and TGTTTTTTAT are within error of each other in switch fluorescence ratio: 1.05 ± 0.04 for the first, 1.02 ± 0.047 for the second.

TTTATATTTG and ACGGAAAACA are within error of each other in switch fluorescence ratio: 1 ± 0.027 for the first, 1.019 ± 0.0039 for the second.

TGTGTTGGTC and AGGGCGGATT are within error of each other in switch fluorescence ratio: 1.036 ± 0.0032 for the first, 1.01 ± 0.031 for the second.

GCCGGTGGAT and TTGGATTCAT are within error of each other in switch fluorescence ratio: 0.9793 ± 0.0084 for the first, 0.995 ± 0.016 for the second.

Going from GGTAGATTGG to ACTCATGACG, the switch fluorescence ratio rises from 0.961 ± 0.015 to 1.045 ± 0.0025.

TGTAGAGGGC and GATCTGCTTC are within error of each other in switch fluorescence ratio: 1.04 ± 0.026 for the first, 1.02 ± 0.026 for the second.

GATGTTGTTT and AACAGGACGC are within error of each other in switch fluorescence ratio: 1.03 ± 0.056 for the first, 1.08 ± 0.1 for the second.

GGGTTTTGCT and ATTATACAGC are within error of each other in switch fluorescence ratio: 0.955 ± 0.028 for the first, 0.993 ± 0.025 for the second.

ACCGGGGGGT and TTATACGGAA are within error of each other in switch fluorescence ratio: 1.37 ± 0.22 for the first, 1.11 ± 0.057 for the second.

GGGATGGATA and ACTAAGGCTC are within error of each other in switch fluorescence ratio: 1.03 ± 0.085 for the first, 1.04 ± 0.051 for the second.

GGAACTTTTA and TGCCTTATTT are within error of each other in switch fluorescence ratio: 1.01 ± 0.023 for the first, 0.9999 ± 0.0049 for the second.

CGCGGGGATA and GACAAACCGC are the same in switch fluorescence ratio: 1.18 ± 0.23 for the first, 1.18 ± 0.032 for the second.

CAGGTCGCTT and TTTAAGTGGT are within error of each other in switch fluorescence ratio: 1.01 ± 0.0019 for the first, 0.998 ± 0.018 for the second.

First: ATCTGGTCAT
Second: ACTCGATACG
The switch fluorescence ratio of the first is lower: 0.972 ± 0.016 for the first, 1.07 ± 0.037 for the second.

GTGCTATAGT and CTGGGGTGGA are within error of each other in switch fluorescence ratio: 1.031 ± 0.0018 for the first, 1.01 ± 0.036 for the second.

GTGTGTTTGC and GTCAGAAATG are within error of each other in switch fluorescence ratio: 1.004 ± 0.0058 for the first, 0.982 ± 0.013 for the second.

First: GACGCGGTTC
Second: GATATATTAT
The switch fluorescence ratio of the first is higher: 5.13 ± 0.77 for the first, 1.017 ± 0.0038 for the second.

First: CGGGACGGGG
Second: TCAGGTGTGT
The switch fluorescence ratio of the first is lower: 0.967 ± 0.022 for the first, 1.36 ± 0.11 for the second.

CGAGATAAGG and GGGGCGGCCT are within error of each other in switch fluorescence ratio: 1 ± 0.014 for the first, 0.979 ± 0.04 for the second.

TAGGGGTACT and TCCTTGGTCG are within error of each other in switch fluorescence ratio: 1.41 ± 0.61 for the first, 1.04 ± 0.031 for the second.

Going from GCCAACGCTG to TGGGAAAGCG, the switch fluorescence ratio falls from 1.1 ± 0.046 to 1 ± 0.024.
